Data on 3 molecules can be found in publication PMC9404881, “Simultaneous Maturation of Single Chain Antibody Stability and Affinity by CHO Cell Display” (Bioengineering, 2022).

Where a chain is given by its changes, count along the chain named. Names and notes keep the numbering of the source.

In assay [1] the target is T1, His-TNFα-GFP (Homo sapiens, UniProt P01375, biotin (conjugated for the Octet measurement only)).
T1 construct: TNFα, antigen of the anti-human TNFα scFv; The names His-TNFα-GFP and GFP-TNFα are both printed, so the side on which GFP stands is not certain; Probably the soluble form of TNFα (surmise); also called GFP-TNFα; source: E. coli containing the PET28a (+)-TNFα-GFP plasmid, purified with a Ni column
Nature of the assay: BLI; ForteBio Octet; biotinylated TNFα-GFP (20 μg/mL) fixed on streptavidin (SA) biosensors; scFv in solution, 250-8000 nM for wild type and 31.25-1000 nM for mutant; association 120 s, dissociation 180 s; KD = Koff/Kon. Particulars: both partners purified.

The target of assay [2] is T1, His-TNFα-GFP. The experiment in a line: flow cytometry on cells; scFv displayed on CHO cells, labelled with TNFα-GFP and PE-conjugated anti-HA antibody for 1/2 h at 4 °C; with or without 5% BSA (antigen binding much reduced without BSA). Particulars: one partner purified.

T1 sequence (P01375 whole entry): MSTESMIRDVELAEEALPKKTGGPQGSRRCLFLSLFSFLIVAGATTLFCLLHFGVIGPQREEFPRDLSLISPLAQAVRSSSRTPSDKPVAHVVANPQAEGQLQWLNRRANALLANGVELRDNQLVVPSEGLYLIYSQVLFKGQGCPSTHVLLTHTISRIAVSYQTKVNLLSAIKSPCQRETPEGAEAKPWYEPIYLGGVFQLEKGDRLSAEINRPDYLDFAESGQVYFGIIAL

B1: Anti-human TNFα wild-type scFv (soluble, His-tagged) (scFv, V domains shown)
VH: QLVQSGPELKKPGETVKISCKASGYTFTNYGMNWVKQAPGKGLKWMGWINTYTGEPTYADDFKGRFAFSLETSASTAYLQINNLKNEDSATYFCAGRRSYDYDVAMDYWGQGTSVTIS
VL: DIVLTQSPASLAVSLGQRATISCRASESVDSYGNYFMHWYQQKPGQPPKLLIYRASNLESGIPARFSGSGSGTDFTLTINPVEADDVATYYCQQSNEEPLTFGSGTKLEIK
notes: scFv from Jie Tang (Institute of Biophysics, CAS); Theoretical mass with His tag about 25 kDa; also called αTNFα; anti-TNFα WT scFv; source: 293F cells, transfected, supernatant purified on a nickel column; not shown: His6, C-terminal, kept
In assay [1], B1 had a Kd of 1550 nM, a koff of 0.00873 s⁻¹ and a kon of 5620 M⁻¹ s⁻¹.

B2: Anti-TNFα scFv mutant G94R (soluble, His-tagged) (scFv, V domains shown)
VH: B1 VH with G96R
VL: B1 VL
notes: position 94 of the heavy chain in the Chothia scheme, right before heavy chain CDR3; Found by AID mutagenesis and sorting on thermo-resistant CHO cells; The base change is printed as G316A; also called G316A (base); G94R scFv; source: 293F cells, transfected, supernatant purified on a nickel column; not shown: His6, C-terminal, kept
In assay [1], B2 showed a Kd of 9.69 nM, a koff of 0.00159 s⁻¹ and a kon of 164000 M⁻¹ s⁻¹.

B3: Anti-TNFα scFv mutant A115V displayed on CHO cells (scFv, V domains shown)
VH: B1 VH with A105V
VL: B1 VL
notes: Most enriched clone of the maturation under normal conditions (37 °C culture, 4 °C labelling); Display construct as m4; not shown: transmembrane peptide (TM), C-terminal, kept
Turning to B3, in assay [2], the binding result is reported as “binds”.
